Residue numbers refer to the chain shown, from its start. Numbers in names are those of the source. Ends that are not written are not given here.

What all share (assay): cell-based or functional assay
The target of assay [1] is Bcl-xL (human, fused to the C-terminus of ADAR2-DD) (human, UniProt Q07817 4-198).
For assay [2], the target named is EGFP(R96M)-AlfaTag fusion protein (non-fluorescent EGFP carrying the ALFA tag).
In assay [3] the target is T1, HCV protease NS3 from genotype 1B (NS4A/NS3, fused to the C-terminus of ADAR2-DD) (Hepatitis C virus genotype 1B, UniProt Q9WMX2 1029-1206).
T1 chain: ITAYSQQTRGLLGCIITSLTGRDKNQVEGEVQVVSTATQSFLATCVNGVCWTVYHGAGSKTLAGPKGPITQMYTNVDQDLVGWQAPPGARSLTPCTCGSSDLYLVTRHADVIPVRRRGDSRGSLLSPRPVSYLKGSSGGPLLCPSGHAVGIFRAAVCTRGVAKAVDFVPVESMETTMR

For the molecule ASGSGTGAPPNLWAAQRYGRELRRMSDEVV (not fully specified) [BAD(V) peptide (Bad point mutant F121V, inserted at the 5' RNA binding loop of ADAR2-DD)], in assay [1], the “Fold Change (1 µM over 0 µM A-1331852)” value stood at 14.4 fold; the “median ratio of mNeonGreen to mCherry, flow cytometry, 0 µM A-1331852 (background)” value (from here on “median ratio of mNeonGreen … (background)”) is 0.0708; the “median ratio of mNeonGreen to mCherry, flow cytometry, 1 µM A-1331852” value (from here on “median ratio of mNeonGreen … 1 µM A-1331852”) came to 1.02.

B1: Bad(F) peptide (BH3 peptide Bad with its linker, as inserted at the 5' RNA binding loop of ADAR2-DD) (peptide)
peptide: ASGSGTGAPPNLWAAQRYGRELRRMSDEFV
modifications: not fully specified (N-terminus, C-terminus); also: part of an expressed fusion protein
With B1, in assay [1], the “Fold Change (1 µM over 0 µM A-1331852)” value came out at 37 fold; the “median ratio of mNeonGreen … (background)” value worked out at 0.026; the “median ratio of mNeonGreen … 1 µM A-1331852” value was determined as 0.962.

B2: Bad(L) peptide (Bad point mutant F121L, inserted at the 5' RNA binding loop of ADAR2-DD) (peptide)
peptide: B1 peptide with F29L
modifications: not fully specified (N-terminus, C-terminus); also: part of an expressed fusion protein
As to B2, in assay [1], the “Fold Change (1 µM over 0 µM A-1331852)” value was determined as 23.2 fold; the “median ratio of mNeonGreen … (background)” value was 0.0389; the “median ratio of mNeonGreen … 1 µM A-1331852” value was determined as 0.903.

B3: ALFA-Bcl dual input iADAR (BAD peptide at the N-terminus of ADAR2-DD(F697Y), ALFA-PE at the 5' RNA binding site, AlfaNb and Bcl-xL in tandem at the C-terminus) (other)
chain: MASNFTQFVLVDNGGTGDVTVAPSNFANGIAEWISSNSRSQAYKVTCSVRQSSAQNRKYTIKVEVPKGAWRSYLNMELTIPIFATNSDCELIVKAMQGLLKDGNPIPSAIAANSGIYGGSGSGAGSGSPAGGGAPGSGGGSTGAPPNLWAAQRYGRELRRMSDEFVDSFKKASQLHLPQVLADAVSRLVLGKFGDLTDNFSSPHARRKVLAGVVMTTGTDVKDAKVISVSTGTKCINGEYMSDRGLALNDCHAEIISRRSLLRFLYTQLELYLNNKDDQKRSIFQKSERGGFRLKENVQFHLYISTSPCGDARIFSPHEPILEEPAASGSGPGRLEEELRRRLSPGTGDRHPNRKARGQLRTKIESGQGTIPVRSNASIQTWDGVLQGERLLTMSCSDKIARWNVVGIQGSLLSIFVEPIYFSSIILGSLYHGDHLSRAMYQRISNIEDLPPLYTLNKPLLSGISNAEARQPGKAPNFSVNWTVGDSAIEVINATTGKDELGRASRLCKHALYCRWMRVHGKVPSHLLRSKITKPNVYHESKLAAKEYQAAKARLFTAFIKAGLGAWVEKPTEQDQYSLTGSGGTAEVQLQESGGGLVQPGGSLRLSCTASGVTISALNAMAMGWYRQAPGERRVMVAAVSERGNAMYRESVQGRFTVTRDFTNKMVSLQMDNLKPEDTAVYYCHVLEDRVDSFHDYWGQGTQVTVSSGAGSGASSNRELVVDFLSYKLSQKGYSWSQFSDVEENRTEAPEGTESEMETPSAINGNPSWHLADSPAVNGATGHSSSLDAREVIPMAAVKQALREAGDEFELRYRRAFSDLTSQLHITPGTAYQSFEQVVNELFRDGVNWGRIVAFFSFGGALCVESVDKEMQVLVSRIAAWMATYLNDHLEPWIQENGGWDTFVELYGNNGSSELIKENMHMKLYMEGTVDNHHFKCTSEGEGKPYEGTQTMRIKVVEGGPLPFAFDILATSFLYGSKTFINHTQGIPDFFKQSFPEGFTWERVTTYEDGGVLTATQDTSLQDGCLIYNVKIRGVNFTSNGPVMQKKTLGWEAFTETLYPADGGLEGRNDMALKLVGGSHLIANIKTTYRSKKPAKNLKMPGVYYVDYRLERIKEANNETYVEQHEVAVARYCDLPSKLGHKLN
Regarding B3, in assay [2], the “median relative fluorescence, flow cytometry: A-1331852 plus EGFP(R96M)-AlfaTag against A-1331852 alone (the effect of adding the antigen)” value is about 10 fold.
Turning to ASGSGTGAPPNLWAAQRYGRELRRMSDEGV (not fully specified), in assay [1], the “Fold Change (1 µM over 0 µM A-1331852)” value came out at 9.65 fold; the “median ratio of mNeonGreen … (background)” value amounted to 0.1; the “median ratio of mNeonGreen … 1 µM A-1331852” value turned out to be 0.968.
On to GELDELVYLLDGPGYDPIHCDVVTRGGSHLFNF [CP5-46-4D5E peptide (NS3 binding peptide, inserted at the 5' RNA binding loop of ADAR2-DD)], for which the “ratio of mNeonGreen to mCherry, 2 µM grazoprevir against no drug, HEK cells, imaging (fusion SEQ ID NO 169)” value in assay [3] is about 18 fold.
